Laboratory results taken from patent publication US20120107364A1 (ACTGEN, published 2012).

Experiments:
[1] = target: T1, PODXL2, positions 1 to 330 (human, UniProt O00592 23-362); assay: flow cytometry on Ba/F3 cells expressing the truncated PODXL2
T1 construct: One of the 14 C-terminal truncations; Expressed on Ba/F3 cells; also called R330
T1 sequence: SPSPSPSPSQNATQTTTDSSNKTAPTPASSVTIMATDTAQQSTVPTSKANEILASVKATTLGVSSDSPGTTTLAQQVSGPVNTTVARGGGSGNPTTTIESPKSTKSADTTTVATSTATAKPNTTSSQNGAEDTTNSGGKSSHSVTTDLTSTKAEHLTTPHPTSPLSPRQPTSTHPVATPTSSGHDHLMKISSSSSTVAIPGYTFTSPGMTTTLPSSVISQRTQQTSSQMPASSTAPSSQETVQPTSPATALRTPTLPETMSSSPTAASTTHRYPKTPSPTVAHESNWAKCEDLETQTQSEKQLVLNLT
Description: (§1) To each sample of the cell suspension, 50 μl of the hybridoma culture supernatant or 2-μg/ml of the purified antibody (hereinafter, referred to as an “antibody solution”) was added, and the antibody was reacted with the cells. As an isotype control of the antibody solution, a wash buffer containing 2 μg/ml of each of mouse IgG1 (BioLegend, 400412), mouse IgG2a (BioLegend, 400224), and mouse IgG2b (BioLegend, 400324) was used. The hybridoma culture supernatant was reacted with the target cells at room temperature for 30 minutes, followed by centrifugation at 700×g for 2 minutes. Then, a culture supernatant was removed. Further, 100 μl of a wash buffer was added, followed by centrifugation at 700×g for 2 minutes again. A supernatant was removed. Then, the cells were washed.
(§2) Next, to the cell pellets after the washing, 50 μl of Goat anti-mouse IgG, F(ab′) 2-PE (PE=phycoerythrin, Beckman Coulter, IM0855) diluted 200-fold with a wash buffer was added as a secondary antibody for detection, and reacted in the dark at room temperature for 30 minutes. The reaction was followed by centrifugation at 700×g for 2 minutes. A supernatant was removed. Further, 100 μl of a wash buffer was added, followed by centrifugation at 700×g for 2 minutes again. A supernatant was removed. Then, the cells were washed. Thereafter, the cells were suspended in an appropriate amount of a wash buffer. The reactivity between the antibody and the cells was analyzed by a flow cytometer (Beckman Coulter, FC500 MPL).
(§3) Thereafter, by the same method as in Example 1 (4) (the virus packaging and thereafter), Ba/F3 cells containing the PODXL2 gene sequences of various chain lengths were prepared. Further, by the same method as in Example 4, the reactivity between the ACT36-27_{—}5D1 antibody and the Ba/F3 cells expressing the PODXL2 molecules of various chain lengths was analyzed by a flow cytometer (FIG. 10).

[2] = target: T2, PODXL2, positions 1 to 320 (human, UniProt O00592 23-352); assay: as above
T2 construct: One of the 14 C-terminal truncations; Expressed on Ba/F3 cells; also called R320
T2 sequence: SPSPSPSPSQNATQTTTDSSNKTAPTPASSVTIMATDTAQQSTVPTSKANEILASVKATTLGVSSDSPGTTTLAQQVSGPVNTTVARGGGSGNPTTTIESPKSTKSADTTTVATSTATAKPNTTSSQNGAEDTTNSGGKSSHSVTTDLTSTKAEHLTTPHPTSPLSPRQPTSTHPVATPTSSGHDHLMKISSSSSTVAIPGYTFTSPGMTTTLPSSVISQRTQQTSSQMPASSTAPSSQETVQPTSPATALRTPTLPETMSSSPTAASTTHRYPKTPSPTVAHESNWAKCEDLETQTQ
Description: as §1, §2, §3

[3] = target: T3, PODXL2, positions 1 to 380 (human, UniProt O00592 23-412); assay: as above
T3 construct: One of the 14 C-terminal truncations; Expressed on Ba/F3 cells; also called R380
T3 sequence: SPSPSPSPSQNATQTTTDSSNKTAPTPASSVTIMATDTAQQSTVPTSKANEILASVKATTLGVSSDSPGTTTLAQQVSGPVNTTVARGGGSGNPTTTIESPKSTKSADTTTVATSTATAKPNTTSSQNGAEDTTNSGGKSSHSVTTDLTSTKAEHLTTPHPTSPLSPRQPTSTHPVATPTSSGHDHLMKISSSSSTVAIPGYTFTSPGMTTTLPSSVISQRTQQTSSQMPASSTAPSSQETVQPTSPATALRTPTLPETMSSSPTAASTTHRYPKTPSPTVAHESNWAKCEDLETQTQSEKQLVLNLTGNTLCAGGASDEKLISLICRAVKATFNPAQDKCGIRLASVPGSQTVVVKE
Description: as §1, §2, §3

[4] = target: T4, human-derived PODXL2 protein (Homo sapiens podocalyxin-like (PODXL), transcript variant 2, NM-005397.3), full … (human, UniProt O00592 23-558); assay: flow cytometry on Ba/F3 cells expressing PODXL2 against negative control Ba/F3 cells (FIG. 1)
T4 construct: 526 amino acids; also called full-length PODXL2 gene
T4 sequence: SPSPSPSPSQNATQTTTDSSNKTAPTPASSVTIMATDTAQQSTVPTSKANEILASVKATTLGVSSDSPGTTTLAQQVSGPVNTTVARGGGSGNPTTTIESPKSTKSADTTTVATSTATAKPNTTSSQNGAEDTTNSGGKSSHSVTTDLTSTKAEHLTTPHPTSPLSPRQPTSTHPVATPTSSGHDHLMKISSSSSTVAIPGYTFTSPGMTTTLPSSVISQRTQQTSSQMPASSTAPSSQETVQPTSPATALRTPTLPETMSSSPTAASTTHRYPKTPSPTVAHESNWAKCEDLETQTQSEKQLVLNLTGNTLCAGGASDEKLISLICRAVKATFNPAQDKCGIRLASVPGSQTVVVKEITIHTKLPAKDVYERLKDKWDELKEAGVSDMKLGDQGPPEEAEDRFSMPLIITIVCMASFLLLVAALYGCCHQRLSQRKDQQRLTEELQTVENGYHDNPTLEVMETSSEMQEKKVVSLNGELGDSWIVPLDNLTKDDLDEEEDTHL
Description: as §1
as §2, with “Then, the cells were washed. Thereafter, the cells were suspended in an appropriate amount of a wash buffer.” left out

binding result [1]: no binding | binding result [2]: no binding | binding result [3]: no binding | binding result [4]: binds
B1: ACT36-27-5D1 antibody (antibody, V domains shown)
VH: EVQLQQSGPELVKPGASVKMSCKASGYTFTSYVMHWVKQKPGQGLEWIGYIHPYNDGIKYNEKFKGKATLTSDKSSSTAYMDLSSLTSEDSAVYYCARSWDWYFDVWAAGTTVTVSS
VL: QIVLTQSPAIMSASPGEKVSMTCSASSSVSYMHWYQQKSGTSPKRWIYDTSKLASGVPARFSGSGSGTSYSLTISSMEAEDAATYYCLQWSSNPPTFGGGTKLE
notes: also called anti-PODXL2 antibody ACT36-27-5D1; anti-ACT36-27-5D1 monoclonal antibody
